Common to all, as to assay type: biochemical
The target in data set [1] is T1, cloned Pfu DNA polymerase (Pyrococcus furiosus, UniProt P61875).
T1 sequence (P61875 1-775): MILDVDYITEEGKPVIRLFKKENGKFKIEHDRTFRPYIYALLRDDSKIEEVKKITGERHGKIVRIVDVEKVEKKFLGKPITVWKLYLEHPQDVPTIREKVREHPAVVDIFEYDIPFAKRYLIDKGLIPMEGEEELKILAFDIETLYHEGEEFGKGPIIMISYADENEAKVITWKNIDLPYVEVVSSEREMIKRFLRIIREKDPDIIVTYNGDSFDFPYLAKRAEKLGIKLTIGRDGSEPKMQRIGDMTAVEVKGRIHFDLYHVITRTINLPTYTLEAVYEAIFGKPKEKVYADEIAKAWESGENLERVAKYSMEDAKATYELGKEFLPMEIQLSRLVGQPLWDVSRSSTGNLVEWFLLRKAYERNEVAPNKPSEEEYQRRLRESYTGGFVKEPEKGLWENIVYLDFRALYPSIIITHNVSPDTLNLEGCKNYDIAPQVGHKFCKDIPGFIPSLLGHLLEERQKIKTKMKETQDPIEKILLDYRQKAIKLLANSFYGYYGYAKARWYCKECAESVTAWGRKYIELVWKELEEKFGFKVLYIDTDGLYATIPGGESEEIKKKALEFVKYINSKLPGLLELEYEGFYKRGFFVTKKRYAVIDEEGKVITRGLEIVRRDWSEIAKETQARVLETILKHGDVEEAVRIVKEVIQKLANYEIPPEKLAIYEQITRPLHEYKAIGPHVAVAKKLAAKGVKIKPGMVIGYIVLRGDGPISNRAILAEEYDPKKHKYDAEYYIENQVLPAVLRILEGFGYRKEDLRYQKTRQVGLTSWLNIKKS
Nature of the data set: 6.2 kb primer-template PCR enhancing assay. To be noted: protein concentrations comparable to or greater than gel-purified PEFs. On the procedure: One embodiment of an assay used to screen for PEFs, in this case from Pyrococcus furiosus, involved amplifying a 6.2 kb target from transgenic mouse DNA (6.2 kb primer-template assay). A master PCR cocktail was prepared consisting of: 200 μM each dNTP, 2 μg/ml primer F432-21 (5′-CTA-TTG-AGT-ACG-AAC-GCC-ATC) (SEQ ID NO.: 62), 2 μg/ml primer R6656-20 (GTC-ACG-CTT-GCT-CCA-CTC-CG) (SEQ ID NO: 63), 2.5 μg/ml λAA742 DNA (transgenic mouse DNA having 40 copies of a lambda phage DNA shuttle vector), 1× cloned Pfu DNA polymerase PCR buffer (10 mM KCl, 10 mM (NH4)2SO4, 20 mM Tris-HCl (pH 8.8), 2 mM MgSO4, 0.1% (v/v) Triton X-100, and 100 μg/ml BSA), and 25 U/ml cloned Pfu DNA polymerase. Samples were diluted in 1× cloned Pfu DNA polymerase PCR buffer, and 1 μl of each diluted sample was added to 24 μl of the PCR cocktail. PCR amplifications were conducted on the RoboCycler 96 Temperature Cycler (Stratagene), using the following conditions: 96° C. for 45 s (1 cycle)/96° C. for 45 s; 60° C. for 45 s; 72° C. for 14 min. (35 cycles)/72° C. for 10 min. (1 cycle). PCR products (10 μl/lane) are run out on 1% agarose gels and PCR product bands visualized by ethidium bromide staining. […] When PCR enhancement is due to the presence of PEFs, rather than contaminating endogenous DNA polymerase activity, amplifications performed in the absence of […] yield no PCR product. Moreover, PCR amplifications performed in the absence of exogenous DNA template should yield no PCR product when the PEF sample lacks contaminating target DNA.

A short description of data set [2]: PCR cycling of dCTP in the presence of PEF or Pfu DNA polymerase, HPLC. To be noted: 10 mM dCTP, 1.25 U Pfu/μl.
In data set [3] the test system is gapped-duplex calf thymus DNA. Nature of the data set: DNA polymerase activity, gapped-duplex calf thymus DNA assay. To be noted: 30 minutes at 72° C. On the procedure:
Initially and as a control to confirm the activity of the DNA polymerase used, gapped-duplex calf thymus DNA (Pharmacia) assays were performed. The polymerase cocktail contained 50 mM Tris-HCl, pH 8.0, 5 mM MgCl2, 1 mM DTT, 50 μg/m BSA, 4% glycerol, 200 μM each dNTP, [^3H]TTP (0.5 mCi·μmole final concentration), and 250 μg/ml of activated calf thymus DNA (Pharmacia). Samples containing Pfu DNA polymerase or P. furiosus PEF were serially diluted in Pfu DNA polymerase storage buffer (50 mM Tris-HCl, pH 8.2, 0.1% NP-40, 0.1% Tween-20, 0.1 mM EDTA, 1 mM DTT, 50% glycerol) and then 1 μl of each dilution was added to 10 μl aliquots of polymerase cocktail. Polymerization reactions were conducted in triplicate for 30 minutes at 72° C. The extension reactions were quenched on ice, and then 5 μl aliquots were spotted immediately onto DE81 filters (Whatman). Unincorporated [^3H]TTP was removed by 6 washes with 2×SCC (0.3M NaCl, 30 mM sodium citrate, pH 7.0), followed by one wash with 100% ethanol. Incorporated radioactivity was measured by scintillation counting. The assay was calibrated by counting a known amount of [^3H]TTP on DE-81 filters, omitting the wash steps. One unit of polymerase activity is defined as the amount of enzyme which catalyzes the incorporation of 10 nmoles of total dNTP into polymeric form (binds to DE-81 paper) in 30 minutes at 72° C. […]

B1: Pfu DNA polymerase: DNA polymerase of Pyrococcus furiosus (protein, UniProt P61875 1-775, looked up)
DNA polymerase: MILDVDYITEEGKPVIRLFKKENGKFKIEHDRTFRPYIYALLRDDSKIEEVKKITGERHGKIVRIVDVEKVEKKFLGKPITVWKLYLEHPQDVPTIREKVREHPAVVDIFEYDIPFAKRYLIDKGLIPMEGEEELKILAFDIETLYHEGEEFGKGPIIMISYADENEAKVITWKNIDLPYVEVVSSEREMIKRFLRIIREKDPDIIVTYNGDSFDFPYLAKRAEKLGIKLTIGRDGSEPKMQRIGDMTAVEVKGRIHFDLYHVITRTINLPTYTLEAVYEAIFGKPKEKVYADEIAKAWESGENLERVAKYSMEDAKATYELGKEFLPMEIQLSRLVGQPLWDVSRSSTGNLVEWFLLRKAYERNEVAPNKPSEEEYQRRLRESYTGGFVKEPEKGLWENIVYLDFRALYPSIIITHNVSPDTLNLEGCKNYDIAPQVGHKFCKDIPGFIPSLLGHLLEERQKIKTKMKETQDPIEKILLDYRQKAIKLLANSFYGYYGYAKARWYCKECAESVTAWGRKYIELVWKELEEKFGFKVLYIDTDGLYATIPGGESEEIKKKALEFVKYINSKLPGLLELEYEGFYKRGFFVTKKRYAVIDEEGKVITRGLEIVRRDWSEIAKETQARVLETILKHGDVEEAVRIVKEVIQKLANYEIPPEKLAIYEQITRPLHEYKAIGPHVAVAKKLAAKGVKIKPGMVIGYIVLRGDGPISNRAILAEEYDPKKHKYDAEYYIENQVLPAVLRILEGFGYRKEDLRYQKTRQVGLTSWLNIKKS
Consider B1, for which the “PCR enhancing activity (in words)” value in data set [1] is “lacks PCR enhancing activity”. The “change in dCDP, dCMP or dUTP produced when dCTP cycled with Pfu DNA polymerase” value in data set [2] is given as “no difference”. For the same molecule, the “specific activity (DNA polymerase)” value in data set [3] is listed as 2-4×10^4 u/mg.
